Article PMC3865061

Columns and labels:
[1] = target: T1, Influenza A virus matrix protein M1 (full-length), strain A/Puerto Rico/8/34 (H1N1) (Influenza A virus A/Puerto Rico/8/34 (H1N1)), P03485; test: AUC; details: remark: other sources report otherwise
T1 chain: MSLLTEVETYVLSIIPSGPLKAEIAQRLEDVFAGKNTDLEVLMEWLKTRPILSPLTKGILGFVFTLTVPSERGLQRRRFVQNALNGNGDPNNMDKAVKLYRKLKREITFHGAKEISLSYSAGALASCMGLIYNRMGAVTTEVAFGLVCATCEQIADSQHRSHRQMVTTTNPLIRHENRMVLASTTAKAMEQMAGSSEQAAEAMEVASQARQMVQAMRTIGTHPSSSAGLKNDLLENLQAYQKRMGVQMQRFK

[2] = target: T1, Influenza A virus matrix protein M1 …; test: SAXS; details: remark: other sources report otherwise

B1: Influenza A virus matrix protein M1 (full-length), strain A/Puerto Rico/8/34 (H1N1), P03485 1-252 (natural protein)
chain: MSLLTEVETYVLSIIPSGPLKAEIAQRLEDVFAGKNTDLEVLMEWLKTRPILSPLTKGILGFVFTLTVPSERGLQRRRFVQNALNGNGDPNNMDKAVKLYRKLKREITFHGAKEISLSYSAGALASCMGLIYNRMGAVTTEVAFGLVCATCEQIADSQHRSHRQMVTTTNPLIRHENRMVLASTTAKAMEQMAGSSEQAAEAMEVASQARQMVQAMRTIGTHPSSSAGLKNDLLENLQAYQKRMGVQMQRFK
volume percent of large associates (volume percent) [1]: 2 to 3 | volume fraction of clusters (volume fraction) [2]: 0.03
